Source: article PMC6680207, “ZmpTAC12 binds single‐stranded nucleic acids and is essential for accumulation of the plastid‐encoded polymerase complex in maize”

Key:
rMBP-pTAC12 (ZmpTAC12) [1] = target: T1, rMBP-pTAC12 (ZmpTAC12) (Zea mays, UniProt B4FZ81 72-555); experiment: EMSA; c. 100 pM probe; EMSA; 1 ug/ul heparin (ssRNA assays), c. 100 pM radiolabeled 50mer; buffer, salt, pH and temperature not in the material; settings: protein: recombinant; tags: N-terminal MBP fusion; label: 5' end radiolabel (T4 PNK)
T1 sequence: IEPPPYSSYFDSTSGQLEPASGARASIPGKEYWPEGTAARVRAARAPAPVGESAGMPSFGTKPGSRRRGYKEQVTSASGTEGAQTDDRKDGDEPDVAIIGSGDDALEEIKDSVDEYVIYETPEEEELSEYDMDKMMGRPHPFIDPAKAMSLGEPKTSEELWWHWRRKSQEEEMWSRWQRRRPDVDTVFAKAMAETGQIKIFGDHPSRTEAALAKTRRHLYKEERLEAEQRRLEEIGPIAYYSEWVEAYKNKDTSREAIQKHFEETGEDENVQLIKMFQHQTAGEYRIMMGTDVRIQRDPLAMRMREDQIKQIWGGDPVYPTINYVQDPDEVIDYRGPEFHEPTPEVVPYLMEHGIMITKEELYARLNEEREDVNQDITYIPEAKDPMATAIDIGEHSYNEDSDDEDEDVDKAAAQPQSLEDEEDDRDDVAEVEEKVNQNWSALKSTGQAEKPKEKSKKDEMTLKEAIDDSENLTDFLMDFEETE

rMBP-pTAC12 (ZmpTAC12) [2] = target: T1, rMBP-pTAC12 (ZmpTAC12); experiment: EMSA; 100 pM dsDNA; EMSA; 1 ug/ul heparin (ssRNA assays), c. 100 pM radiolabeled 50mer; buffer, salt, pH and temperature not in the material; settings: protein: recombinant; tags: N-terminal MBP fusion; label: 5' end radiolabel (T4 PNK); blunt
rMBP-pTAC12 (ZmpTAC12) [3] = target: T1, rMBP-pTAC12 (ZmpTAC12); experiment: EMSA; 1 ug/ul heparin; c. 100 pM probe; EMSA; 1 ug/ul heparin (ssRNA assays), c. 100 pM radiolabeled 50mer; buffer, salt, pH and temperature not in the material; settings: protein: recombinant; tags: N-terminal MBP fusion; label: radiolabeled

TAATTGCTCCAGTGAATAACTAAAAAAAAAAATAGAAGGACGGTAGATAG (ssDNA) [psaAB-150 ssDNA]
binding result (rMBP-pTAC12 (ZmpTAC12) [1]): binds

B1: psaAB-150 dsDNA (dsDNA)
DNA 1: TAATTGCTCCAGTGAATAACTAAAAAAAAAAATAGAAGGACGGTAGATAG
DNA 2: CTATCTACCGTCCTTCTATTTTTTTTTTTAGTTATTCACTGGAGCAATTA
binding result (rMBP-pTAC12 (ZmpTAC12) [2]): no binding

B2: psaAB-150 ssRNA (ssRNA)
RNA: GGUAAUUGCUCCAGUGAAUAACUAAAAAAAAAAAUAGAAGGACGGUAGAUAG
binding result (rMBP-pTAC12 (ZmpTAC12) [3]): binds
